Experimental data taken from article PMC5921574 (Molecular Biology of the Cell, 2018).

Target: actin filaments (F-actin) from rabbit skeletal muscle (rabbit, UniProt P68135 1-377)
Experiment: co-sedimentation

B1: LEV-11A(E234K), recombinant (natural protein)
chain: MASDAIKKKMQAMKIEKDNALDRADAAEEKVRQITEKLERVEEELRDTQKKMTQTGDDLDKAQEDLSAATSKLEEKEKTVQEAEAEVASLNRRMTLLEEELERAEERLKIATEKLEEATHNVDESERVRKVMENRSLQDEERANTVEAQLKEAQLLAEEADRKYDEVARKLAMVEADLERAEERAEAGENKIVELEEELRVVGNNLKSLEVSEEKALQREDSYEEQIRTVSSRLKKAETRAEFAERSVQKLQKEVDRLEDELVHEKERYKTISEELDSTFQELSGY
fold decrease in affinity against wild-type LEV-11A: ~3 fold
